Numbering of substitutions follows the chain as printed.
B1: human PTPδ Ig1–3 WT (domain or fragment, UniProt P23468 21-320, looked up)
chain: ETPPRFTRTPVDQTGVSGGVASFICQATGDPRPKIVWNKKGKKVSNQRFEVIEFDDGSGSVLRIQPLRTPRDEAIYECVASNNVGEISVSTRLTVLREDQIPRGFPTIDMGPQLKVVERTRTATMLCAASGNPDPEITWFKDFLPVDTSNNNGRIKQLRSESIGGTPIRGALQIEQSEESDQGKYECVATNSAGTRYSAPANLYVRELREVRRVPPRFSIPPTNHEIMPGGSVNITCVAVGSPMPYVKWMLGAEDLTPEDDMPIGRNVLELNDVRQSANYTCVAMSTLGVIEAIAQITVK
notes: PTPδ, human, Ig domains 1-3 with MeA and MeB remained; residues 21-320 as stated for its variants; also called MeA^+/MeB^+; source: BacMam baculovirus-transduced HEK293 GnTI- cells, secreted, purified (Ni-NTA, gel filtration); not shown: His7, C-terminal, kept
B2: human PTPδ Ig1–3 (MeB^−) (domain or fragment, UniProt P23468 21-320, looked up)
chain: ETPPRFTRTPVDQTGVSGGVASFICQATGDPRPKIVWNKKGKKVSNQRFEVIEFDDGSGSVLRIQPLRTPRDEAIYECVASNNVGEISVSTRLTVLREDQIPRGFPTIDMGPQLKVVERTRTATMLCAASGNPDPEITWFKDFLPVDTSNNNGRIKQLRSESIGGTPIRGALQIEQSEESDQGKYECVATNSAGTRYSAPANLYVRVRRVPPRFSIPPTNHEIMPGGSVNITCVAVGSPMPYVKWMLGAEDLTPEDDMPIGRNVLELNDVRQSANYTCVAMSTLGVIEAIAQITVK
notes: PTPδ, human, Ig domains 1-3, residues 21-320 with the MeB splice insert ELRE 227-230 deleted; Splice code variant lacking mini exon B; also called MeA^+/MeB^−; source: BacMam baculovirus-transduced HEK293 GnTI- cells, secreted, purified (Ni-NTA, gel filtration); not shown: His7, C-terminal, kept
B3: human SALM5 LRR-Ig (wild type) (domain or fragment, UniProt Q96NI6 18-374, looked up)
chain: QICPKRCVCQILSPNLATLCAKKGLLFVPPNIDRRTVELRLADNFVTNIKRKDFANMTSLVDLTLSRNTISFITPHAFADLRNLRALHLNSNRLTKITNDMFSGLSNLHHLILNNNQLTLISSTAFDDVFALEELDLSYNNLETIPWDAVEKMVSLHTLSLDHNMIDNIPKGTFSHLHKMTRLDVTSNKLQKLPPDPLFQRAQVLATSGIISPSTFALSFGGNPLHCNCELLWLRRLSREDDLETCASPPLLTGRYFWSIPEEEFLCEPPLITRHTHEMRVLEGQRATLRCKARGDPEPAIHWISPEGKLISNATRSLVYDNGTLDILITTVKDTGAFTCIASNPAGEATQIVDLHI
modifications: N-linked glycans at N73, N330 and N339
notes: SALM5, human, LRR and Ig domains, residues 18-374; Glycans trimmed with Endo H only for crystallization; also called SALM5 LRR-Ig WT; WT; source: BacMam baculovirus-transduced HEK293 GnTI- cells, secreted, purified (Ni-NTA, gel filtration); not shown: His7, C-terminal, kept
B4: Fc-tagged human PTPδ Ig1–3 (MeA^−) (Fc fusion, UniProt P23468 21-320, looked up)
chain: ETPPRFTRTPVDQTGVSGGVASFICQATGDPRPKIVWNKKGKKVSNQRFEVIEFDDGSGSVLRIQPLRTPRDEAIYECVASNNVGEISVSTRLTVLREDQIPRGFPTIDMGPQLKVVERTRTATMLCAASGNPDPEITWFKDFLPVDTSNNNGRIKQLRSGALQIEQSEESDQGKYECVATNSAGTRYSAPANLYVRELREVRRVPPRFSIPPTNHEIMPGGSVNITCVAVGSPMPYVKWMLGAEDLTPEDDMPIGRNVLELNDVRQSANYTCVAMSTLGVIEAIAQITVK
notes: BacMam vector with C-terminal human IgG1 Fc plus 7x His-tag; also called PTPδ-Fc; PTPδ Ig1–3 (MeA^−)-Fc; source: BacMam baculovirus-transduced HEK293 GnTI- cells, secreted, purified (Ni-NTA, gel filtration); not shown: Fc (human IgG1), C-terminal, kept
B5: human PTPδ Ig1–3 (MeA^−) (domain or fragment, UniProt P23468 21-320, looked up)
chain: B4 chain
notes: Glycans trimmed with Endo H only for crystallization; also called MeA^−/MeB^+; source: BacMam baculovirus-transduced HEK293 GnTI- cells, secreted, purified (Ni-NTA, gel filtration); not shown: His7, C-terminal, kept
B6: human PTPδ Ig1–3 (MeA^−/MeB^−) (domain or fragment, UniProt P23468 21-320, looked up)
chain: ETPPRFTRTPVDQTGVSGGVASFICQATGDPRPKIVWNKKGKKVSNQRFEVIEFDDGSGSVLRIQPLRTPRDEAIYECVASNNVGEISVSTRLTVLREDQIPRGFPTIDMGPQLKVVERTRTATMLCAASGNPDPEITWFKDFLPVDTSNNNGRIKQLRSGALQIEQSEESDQGKYECVATNSAGTRYSAPANLYVRVRRVPPRFSIPPTNHEIMPGGSVNITCVAVGSPMPYVKWMLGAEDLTPEDDMPIGRNVLELNDVRQSANYTCVAMSTLGVIEAIAQITVK
notes: PTPδ, human, Ig domains 1-3, residues 21-320 with both residues 181-189 (MeA) and 227-230 (MeB) deleted; Splice code variant lacking mini exons A and B; source: BacMam baculovirus-transduced HEK293 GnTI- cells, secreted, purified (Ni-NTA, gel filtration); not shown: His7, C-terminal, kept

Key:
[1] = target: B3; test: SPR; Biacore T200, 25 °C; His-tagged SALM5 LRR-Ig immobilised on CM5; His-tagged PTPδ Ig1–3 variants as analytes 2.74-6000 nM; 10 mM HEPES pH 7.4, 150 mM NaCl, 3 mM EDTA, 0.05% P20; 1:1 Langmuir model; conditions: both partners purified
[2] = target: the molecule itself; test: crystal structure; SALM5 LRR-Ig in complex with PTPδ Ig1–3 (MeA^−), Endo H trimmed; 3.73 Å; 0.76 M potassium sodium tartrate, 0.1 M MES pH 6.0; molecular replacement
human SALM5 LRR-Ig L327N = target: T1, human SALM5 LRR-Ig L327N (human, UniProt Q96NI6 18-374, L327N, introduced N-linked glycan wedge GlcNAc2Man5 (confirmed by mass spectrometry)); test: SPR; Biacore T200, 25 °C; Fc-tagged PTPδ Ig1–3 (MeA^−) amine-coupled to CM5 (about 500 RU); SALM5 LRR-Ig analytes 23.43-1500 nM; 10 mM HEPES pH 7.4, 150 mM NaCl, 3 mM EDTA, 0.05% P20; 1:1 Langmuir model; conditions: both partners purified
T1 construct: SALM5, human, LRR and Ig domains, residues 18-374, with L327N; source: BacMam baculovirus-transduced HEK293 GnTI- cells, secreted, purified (Ni-NTA, gel filtration); not shown: His7, C-terminal, kept
T1 sequence (looked up): B3 chain with L310N

[3] = target: B3; test: as above; conditions: both partners purified
[4] = target: T2, human SALM5 LRR-Ig R110N/E160S (human, UniProt Q96NI6 18-374, R110N | E160S, N-linked glycans added at residues R110 and N158 (glycan wedge, shown by mass spectrometry)); test: SEC; purified SALM5 and PTPδ mixed, 1 h at 4 °C, Superdex 200 Increase in HBS (10 mM HEPES pH 7.5, 500 mM NaCl); conditions: both partners purified
T2 construct: SALM5, human, LRR and Ig domains, residues 18-374, with R110N and E160S; also called monomeric SALM5 R110N/E160S mutant; source: BacMam baculovirus-transduced HEK293 GnTI- cells, secreted, purified (Ni-NTA, gel filtration)
T2 sequence (looked up): B3 chain with R93N, E143S

Binder: B1
- Kd [1]: 66 nM

Binder: B2
- Kd [1]: 1780 nM

Binder: B3
- stoichiometry N [2]: 2

Binder: B4
- Kd (human SALM5 LRR-Ig L327N): 145 nM
- Kd [3]: 282 nM

Binder: B5
- Kd [1]: 99.9 nM
- binding result [4]: binds

Binder: B6
- Kd [1]: 1870 nM

From PMC5773555, “Structural basis of SALM5-induced PTPδ dimerization for synaptic differentiation” (Nature Communications, 2018)
